Test [1] addresses T1, human CXCR4 (human, UniProt P61073 1-352).
T1 construct: also called hCXCR4; Fusin
Kind of test: SPR (Biacore), immobilised CXCR4 lipoparticles.

The target in test [2] is T1, human CXCR4. Nature of the test: SPR (Biacore), biotinylated CXCR4 lipoparticles captured on streptavidin (bt. CXCR4), i-body injected. In general terms: SPR reads the build-up and loss of mass on a sensor chip optically.
Test [3] deals with T1, human CXCR4. Nature of the test: SPR (Biacore), CXCR4 expressed on lipoparticles.
For test [4], the target named is T1, human CXCR4. Kind of test: cell-based or functional assay.
Test [5] addresses T1, human CXCR4. Nature of the test: cell-based or functional assay. The source holds these as a separate data set.
Test [6] deals with T1, human CXCR4. Nature of the test: off-rate, CXCR4 expressed on lipoparticles.
In test [7] the target is T1, human CXCR4. Nature of the test: SPR.
Test [8] deals with T1, human CXCR4. Kind of test: SPR (Biacore), immobilised CXCR4 lipoparticles. This is another data set of the same source.
Test [9] has as its target T1, human CXCR4. Kind of test: not told (affinity for CXCR4); parent i-body before affinity maturation.
The next test deals with T2, CCR5 (on lipoparticles) (UniProt P51681 1-352, limits assumed).
T2 construct: whole, on cells; Whole receptor in lipoparticles; also called CCR5 positive lipoparticles; GPCR CCR5
T2 sequence (P51681 whole entry): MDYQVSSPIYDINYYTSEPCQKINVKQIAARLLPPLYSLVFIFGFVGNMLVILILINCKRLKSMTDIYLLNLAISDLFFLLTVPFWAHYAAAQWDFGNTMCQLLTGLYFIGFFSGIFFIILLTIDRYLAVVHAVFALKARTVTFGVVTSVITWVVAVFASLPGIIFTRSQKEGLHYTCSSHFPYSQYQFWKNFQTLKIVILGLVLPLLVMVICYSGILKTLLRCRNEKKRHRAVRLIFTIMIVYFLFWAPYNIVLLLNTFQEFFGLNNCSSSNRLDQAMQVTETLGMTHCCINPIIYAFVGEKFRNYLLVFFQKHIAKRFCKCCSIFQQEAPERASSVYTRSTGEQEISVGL
Nature of the test: ELISA, single point, periplasmic fraction on CCR5 positive lipoparticles, 450 nm absorbance. (ELISA stands for enzyme-linked immunosorbent assay.)

Test [10] addresses T1, human CXCR4. Nature of the test: SPR (Biacore), biotinylated CXCR4 lipoparticles captured on streptavidin (bt. CXCR4), i-body injected. The source holds these as a separate data set.
The target in test [11] is T3, human serum albumin (human, UniProt P02768 25-609).
T3 construct: also called HSA; HAS
Kind of test: SPR.

Test [12] concerns the target T1, human CXCR4. Nature of the test: SPR (Biacore).
In test [13] the target is T3, human serum albumin. Nature of the test: SPR (Biacore), binding to HSA by the SA21 peptide.
The target of test [14] is T1, human CXCR4. Kind of test: SPR (Biacore), biotinylated CXCR4 lipoparticles (bt.CXCR4), three successive injections in one cycle.
The target of test [15] is T1, human CXCR4. Kind of test: phage display selection on hCXCR4 lipoparticles or CXCR4 positive cells.
Test [16] addresses T1, human CXCR4. Nature of the test: not told.
Test [17] addresses T1, human CXCR4. Kind of test: cell-based or functional assay. This is another data set of the same source.
Test [18] concerns the target T1, human CXCR4. Kind of test: SPR (Biacore), biotinylated CXCR4 lipoparticles captured on streptavidin (bt. CXCR4), i-body injected. The source holds these as a separate data set.
The target in test [19] is T1, human CXCR4. Nature of the test: flow cytometry on Ramos cells, anti-His-PE; i-body alone or with an excess of SDF-1, MAb 12G5 or AMD3100 [top panel]. On the technique in general: A flow cytometer gives signals particle by particle.
For test [20], the target named is T1, human CXCR4. Kind of test: flow cytometry on Ramos cells, anti-His-PE; i-body alone or with an excess of SDF-1, MAb 12G5 or AMD3100 [middle panel].

Positions count from the first letter of the chain named. Values joined by “and” are separate entries in the source; they are usually repeats but may differ in a detail not shown here. Identical values can stand only once.

T1 sequence (P61073 whole entry): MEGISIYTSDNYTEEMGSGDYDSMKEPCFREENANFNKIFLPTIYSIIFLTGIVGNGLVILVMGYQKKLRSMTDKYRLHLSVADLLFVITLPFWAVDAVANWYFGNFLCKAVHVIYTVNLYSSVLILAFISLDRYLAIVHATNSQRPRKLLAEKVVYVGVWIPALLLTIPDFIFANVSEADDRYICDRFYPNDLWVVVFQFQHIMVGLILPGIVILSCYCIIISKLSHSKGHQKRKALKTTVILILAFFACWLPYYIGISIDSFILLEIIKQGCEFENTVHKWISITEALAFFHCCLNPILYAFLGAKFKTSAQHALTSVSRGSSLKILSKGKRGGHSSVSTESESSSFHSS

B1: ADCX-668 (designed binder)
chain: LQVDIVPSQGEISVGESKFFLCQVAGTIWYEQISWFTPNGEKLTPNQQRISVVWNDDSSSTLTIYNANIDDAGIYKCVVWTRPVTSSMHEATVNVKIFQ
notes: i-body (human NCAM1 domain 1 scaffold)
Consider B1, for which the results for the Kd with human CXCR4 [1] and in the test with human CXCR4 [2] were 42000 nM and 42300 nM, respectively.

B2: AM3-920 (designed binder)
chain: LQVDIVPSQGEISVGESKFFLCQVAGSGSGIRISWFSPNGEKLTPNQQRISVVWNDDSSSTLTIYNANIDDAGIYKCVVWRTGGYRHRYLVLGEATVNVKIFQ
For B2, in the test with human CXCR4 [3], the Kd was 7.18 nM and 5.87 nM; the kon was 1.12e+06 M⁻¹ s⁻¹ and 1.26e+06 M⁻¹ s⁻¹.

B3: AM4-661 (designed binder)
chain: B2 chain with G28K, G30D, I31F, W80Y
On to B3, for which the “IC50 (nM) in β-Arrestin BRET assay (Antagonist mode in the presence of 100 nM SDF-1)” value (from here on “IC50 (nM) in β-Arrestin BRET assay”) in the test with human CXCR4 [4] is 1540 nM. In the test with human CXCR4 [3], the Kd is 9.53 nM and 9.66 nM; the kon was 966000 M⁻¹ s⁻¹ and 983000 M⁻¹ s⁻¹.

B4: AM4-1121 (designed binder)
chain: B2 chain with G28K, W80Y, V91R
As to B4, the “cAMP inhibition IC50” value in the test with human CXCR4 [5] is 125 nM. The “IC50 (nM) in β-Arrestin BRET assay” value with human CXCR4 [4] amounted to 796 nM. This molecule displayed a koff with human CXCR4 [6] of 0.0115 s⁻¹. In the test with human CXCR4 [3], the Kd was 7.21 nM and 6.7 nM; the kon is 1.29e+06 M⁻¹ s⁻¹ and 1.42e+06 M⁻¹ s⁻¹.

B5: AM4-613 (designed binder)
chain: B2 chain with G28K, G30D, I31V
Consider B5, for which, in the test with human CXCR4 [4], the “IC50 (nM) in β-Arrestin BRET assay” value worked out at 1830 nM. In the test with human CXCR4 [3], this molecule yielded a Kd of 7.83 nM and a kon of 1.33e+06 M⁻¹ s⁻¹.

B6: AM5-245 (designed binder)
chain: B2 chain with V24A, G30H, Y89A
Turning to B6, in the test with human CXCR4 [3], the Kd was 14.9 nM and 15.9 nM; the kon is 813000 M⁻¹ s⁻¹ and 771000 M⁻¹ s⁻¹.

B7: AM3-466 (designed binder)
chain: B2 chain with G30H, I31Q, G84A, Y89A
As to B7, the “IC50 (nM) in β-Arrestin BRET assay” value with human CXCR4 [4] stood at 6320 nM. Further, in the test with human CXCR4 [3], the Kd was 13.8 nM and 15.7 nM; the kon was 465000 M⁻¹ s⁻¹ and 426000 M⁻¹ s⁻¹.

B8: AM3-523 (designed binder)
chain: B2 chain with G30H, I31M, T82V, Y89A
B8: the “cAMP inhibition IC50” value with human CXCR4 [5] is 225 nM. The “IC50 (nM) in β-Arrestin BRET assay” value with human CXCR4 [4] was 12700 nM. Besides, in the test with human CXCR4 [3], the dissociation constant Kd was 8.53 nM and 9.47 nM; the kon was 1e+06 M⁻¹ s⁻¹ and 965000 M⁻¹ s⁻¹.

B9: ADCX-99 (designed binder)
chain: B2 chain with G30D, W80Y, Y89A
notes: i-body (human NCAM1 domain 1 scaffold); also called wild-type i-body ADCX-99
Turning to B9, the Kd in the test with human CXCR4 [7] was 643 nM; with human CXCR4 [8], ~600 nM and 623 nM; in the test with human CXCR4 [1], 700 nM; with human CXCR4 [9], greater than 700 nM. Besides, the binding result in the test with CCR5 (on lipoparticles) was “no binding”.

B10: AM4-746 (designed binder)
chain: B2 chain with G28K, G30N, W80Y, V91K
Consider B10, for which the “cAMP inhibition IC50” value with human CXCR4 [5] was determined as 115 nM. The “IC50 (nM) in β-Arrestin BRET assay” value in the test with human CXCR4 [4] turned out to be 741 nM. In the test with human CXCR4 [3], this molecule showed a Kd of 5.36 nM and a kon of 2.5e+06 M⁻¹ s⁻¹.

B11: ADCX-272 (designed binder)
chain: LQVDIVPSQGEISVGESKFFLCQVAGHLEVRSISWFSPNGEKLTPNQQRISVVWNDDSSSTLTIYNANIDDAGIYKCVVEQRGRSQSYFSEATVNVKIFQ
notes: as for B1
Consider B11, for which the Kd with human CXCR4 [1] was 1600 nM; in the test with human CXCR4 [10], 1620 nM. Further, the binding result with CCR5 (on lipoparticles) is recorded as “no binding”.

B12: AM3-114-Im7-FH-SA21 dual specificity i-body (designed binder)
chain: MALQVDIVPSQGEISVGESKFFLCQVAGSLSGIRISWFSPNGEKLTPNQQRISVVWNDDSSSTLTIYNANIDDAGIYKCVVWRTGGYRHRYLVLGEATVNVKIFQGGGGSELKNSISDYTEAEFVQLLKEIEKENVAATDDVLDVLLEHFVKITEHPDGTDLIYYPSDNRDDSPEGIVKEIKEWRAANGKPGFKQGGGGGSDYKDDDDKGSGHHHHHHHHGGGGSRLIEDICLPRWGCLWEDD
Regarding B12, the Kd in the test with human CXCR4 [7] was 5 to 10 nM; with human serum albumin [11], roughly 500 nM; with human CXCR4 [12], 9 nM; with human serum albumin [13], 518 nM; with human CXCR4 [14], 9.2 nM. The molecule also registered a koff in the test with human CXCR4 [14] of 0.002 s⁻¹. The kon in the test with human CXCR4 [14] was determined as 210000 M⁻¹ s⁻¹.

B13: ADCX-54 (designed binder)
chain: LQVDIVPSQGEISVGESKFFLCQVAGRTIIVEISWFSPNGEKLTPNQQRISVVWNDDSSSTLTIYNANIDDAGIYKCVVVLSIRGKWELEATVNVKIFQ
notes: as for B1
As for B13, the binding result with human CXCR4 [15] is “binds”.

B14: ADCX-6 (designed binder)
chain: LQVDIVPSQGEISVGESKFFLCQVAGLTSLEGISWFSPNGEKLTPNQQRISVVWNDDSSSTLTIYNANIDDAGIYKCVVEDHPQYSKMEEATVNVKIFQ
notes: i-body (human NCAM1 domain 1 scaffold); also called ACDX-6
With B14, in the test with human CXCR4 [15], the binding result is reported as “binds”.

B15: 21H5 control i-body (designed binder)
chain: LQVDIVPSQGEISVGESKFFLCQVAGDAKDKDISWFSPNGEKLTPNQQRISVVWNDDSSSTLTIYNANIDDAGIYKCVVTGSDAMSNYSYPISESEATVNVKIFQ
notes: Control i-body used as isotype control; also called negative control i-body; isotype control i-body
B15: the binding result in the test with human CXCR4 [16] is listed as “no binding”. The “cAMP inhibition IC50” value with human CXCR4 [5] was greater than 10000 nM. Further, the “Calcium Inhibition EC50” value with human CXCR4 [17] was greater than 10000 nM.

B16: ADCX-306 (designed binder)
chain: LQVDIVPSQGEISVGESKFFLCQVAGFQEWVNWFSPNGEKLTPNQQRISVVWNDDSSSTLTIYNANIDDAGIYKCVVTMPHTLNNLDVRTEATVNVKIFQ
notes: as for B1
In the case of B16, the results for the Kd with human CXCR4 [8], with human CXCR4 [1] and with human CXCR4 [18] were 22500 nM, 22000 nM and 22500 nM, respectively.

B17: AM3-114-6H (designed binder)
chain: EAEALQVDIVPYQGEISVGESKFFLCQVAGSLSGIRISWFSPNGEKLTPNQQRISVVWNDDSSSTLTIYNANIDDAGIYKCVVWRTGGYRHRYLVLGEATVNVKIFQ
notes: Construct with N-terminal EAEA and 6H tag, detected with anti-His-PE; not shown: 6H tag (six histidines by the label)
For B17, the binding result with human CXCR4 [19] was “binds”.

B18: AM4-272-6H (designed binder)
chain: B17 chain with Y12S, L32Y, G34D, I35Y, W84Y, T86I
notes: as for B17
Take B18: the binding result in the test with human CXCR4 [20] is “binds”.

By Kd is commonly meant the free concentration of one partner at which half of the binding sites on the other are occupied at equilibrium, for simple one-to-one binding. The kon is the second-order rate constant of association. A higher kon goes with fast association. What is called koff is the rate constant with which the complex falls apart. Read a low koff as slow dissociation.

For the origin of these results see US20180072816A1 (ADALTA, published 2018).
